Data reported in publication PMC3627603 (Nucleic Acids Research, 2013).

T1: H6-Mcm10 full length (FL), recombinant (human, UniProt Q7L590-2 1-874)
T1 sequence (looked up): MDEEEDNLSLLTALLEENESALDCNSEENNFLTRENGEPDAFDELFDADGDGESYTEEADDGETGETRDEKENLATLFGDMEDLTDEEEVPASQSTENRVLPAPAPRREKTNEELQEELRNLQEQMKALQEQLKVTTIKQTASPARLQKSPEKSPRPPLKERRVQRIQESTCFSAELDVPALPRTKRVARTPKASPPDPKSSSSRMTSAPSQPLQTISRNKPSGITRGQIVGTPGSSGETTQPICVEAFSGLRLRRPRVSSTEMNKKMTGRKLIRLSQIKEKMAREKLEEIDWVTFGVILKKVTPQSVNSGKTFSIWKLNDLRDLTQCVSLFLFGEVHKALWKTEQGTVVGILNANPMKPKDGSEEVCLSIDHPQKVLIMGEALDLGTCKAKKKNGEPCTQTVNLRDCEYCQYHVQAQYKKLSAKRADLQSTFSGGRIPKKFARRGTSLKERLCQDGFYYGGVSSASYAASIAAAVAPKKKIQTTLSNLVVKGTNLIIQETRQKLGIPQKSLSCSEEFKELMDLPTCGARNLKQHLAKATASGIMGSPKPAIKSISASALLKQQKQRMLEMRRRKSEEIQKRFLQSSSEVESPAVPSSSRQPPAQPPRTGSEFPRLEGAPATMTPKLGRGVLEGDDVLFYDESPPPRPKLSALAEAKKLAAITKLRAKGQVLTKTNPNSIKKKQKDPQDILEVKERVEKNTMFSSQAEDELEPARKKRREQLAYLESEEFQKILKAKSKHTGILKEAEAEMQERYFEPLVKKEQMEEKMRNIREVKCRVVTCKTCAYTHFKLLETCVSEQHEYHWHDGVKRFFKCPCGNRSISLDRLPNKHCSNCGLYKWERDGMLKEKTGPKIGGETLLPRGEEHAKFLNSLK

B1: His-tagged Mcm10 C-terminal domain (CTD, aa 630-874) (domain or fragment, human, UniProt Q7L590-2 630-874, looked up)
chain: GVLEGDDVLFYDESPPPRPKLSALAEAKKLAAITKLRAKGQVLTKTNPNSIKKKQKDPQDILEVKERVEKNTMFSSQAEDELEPARKKRREQLAYLESEEFQKILKAKSKHTGILKEAEAEMQERYFEPLVKKEQMEEKMRNIREVKCRVVTCKTCAYTHFKLLETCVSEQHEYHWHDGVKRFFKCPCGNRSISLDRLPNKHCSNCGLYKWERDGMLKEKTGPKIGGETLLPRGEEHAKFLNSLK
B2: GST-SIRT1 (enzyme, human, UniProt Q96EB6 1-747, looked up)
chain: MADEAALALQPGGSPSAAGADREAASSPAGEPLRKRPRRDGPGLERSPGEPGGAAPEREVPAAARGCPGAAAAALWREAEAEAAAAGGEQEAQATAAAGEGDNGPGLQGPSREPPLADNLYDEDDDDEGEEEEEAAAAAIGYRDNLLFGDEIITNGFHSCESDEEDRASHASSSDWTPRPRIGPYTFVQQHLMIGTDPRTILKDLLPETIPPPELDDMTLWQIVINILSEPPKRKKRKDINTIEDAVKLLQECKKIIVLTGAGVSVSCGIPDFRSRDGIYARLAVDFPDLPDPQAMFDIEYFRKDPRPFFKFAKEIYPGQFQPSLCHKFIALSDKEGKLLRNYTQNIDTLEQVAGIQRIIQCHGSFATASCLICKYKVDCEAVRGDIFNQVVPRCPRCPADEPLAIMKPEIVFFGENLPEQFHRAMKYDKDEVDLLIVIGSSLKVRPVALIPSSIPHEVPQILINREPLPHLHFDVELLGDCDVIINELCHRLGGEYAKLCCNPVKLSEITEKPPRTQKELAYLSELPPTPLHVSEDSSSPERTSPPDSSVIVTLLDQAAKSNDDLDVSESKGCMEEKPQEVQTSRNVESIAEQMENPDLKNVGSSTGEKNERTSVAGTVRKCWPNRVAKEQISRRLDGNQYLFLPPNRYIFHGAEVYSDSEDDVLSSSSCGSNSDSGTCQSPSLEEPMEDESEIEEFYNGLEDEPDVPERAGGAGFGTDGDDQEAINEAISVKQEVTDMNYPSNKS

What was measured:
[1] = target: B2; test: pull-down
[2] = target: T1, H6-Mcm10 full length (FL), recombinant; test: pull-down

binding result [1] | binding result [2] | Binder
binds | – | B1
– | binds | B2
